Data as given in patent US20210221907A1 (published 2021).

Legend:
[1] = molecular target: T1, TROP2 on MDA-468 cells over-expressing TROP2 (TROP2+ MDA-468) (UniProt P09758 27-323); assay: cell-based or functional assay
T1 sequence (looked up): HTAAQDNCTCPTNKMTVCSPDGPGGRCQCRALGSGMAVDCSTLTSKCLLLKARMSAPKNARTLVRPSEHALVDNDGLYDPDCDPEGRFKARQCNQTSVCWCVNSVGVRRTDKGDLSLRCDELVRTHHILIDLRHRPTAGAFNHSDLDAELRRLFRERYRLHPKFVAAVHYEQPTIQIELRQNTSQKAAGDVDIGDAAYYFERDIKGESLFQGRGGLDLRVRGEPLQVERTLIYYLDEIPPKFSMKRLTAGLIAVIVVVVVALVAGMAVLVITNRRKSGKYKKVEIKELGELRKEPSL

[2] = molecular target: T2, recombinant TROP2 protein (UniProt P09758 27-274, limits assumed); assay: ELISA titration, antibody with varying concentrations of recombinant TROP2 protein
T2 construct: also called rProtein
T2 sequence (looked up): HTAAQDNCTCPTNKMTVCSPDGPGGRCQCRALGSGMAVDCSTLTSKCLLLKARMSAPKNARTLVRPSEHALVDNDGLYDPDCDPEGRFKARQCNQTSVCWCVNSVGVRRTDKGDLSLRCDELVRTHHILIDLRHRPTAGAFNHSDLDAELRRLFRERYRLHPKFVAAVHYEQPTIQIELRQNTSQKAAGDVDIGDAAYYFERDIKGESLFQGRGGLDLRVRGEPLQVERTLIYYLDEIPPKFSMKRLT
Protocol: Antibodies were tested in an antigen binding assay using ELISA titration experiments. Antibodies were incubated with varying concentrations of recombinant TROP2 protein [rProtein].

Row | Binder | Indirect Cytotoxicity Cell viability % [1] [%] | Indirect Cytotoxicity IC50 [1] [pM] | rProtein ELISA Affinity [2] [nM]
1 | TROP2-Ab8 (antibody, V domains shown, Monoclonal antibody from a hybridoma clone) VH: QVQLQQSGPEVVKPGASVKMSCKASGYRFTDYVINWVKQRTGQGLEWIGQIYPGSDSFHYNKNFKGKATLTADKSSNTAYMQLNSLTSEDSAVYFCARFFEGLAYWGQGTLVTVSA VL: DIKMTQSPSSMYAFLGERVTITCKASQGINNYLSWFQLKPGKSPKSLIYRANRLVDGVPSRFSGSGSGQDYSLTISSLDYEDMGIYYCLQYDEFPLTFGGGTKLELK | 26 | 27.1 | < 0.1
2 | TROP2-Ab7 (antibody, V domains shown, Monoclonal antibody from a hybridoma clone (V regions amplified with mouse Ig primers)) VH: QVQLQQSGPEVVKPGASVKMSCKASGYRFTDYVINWVKQRSGQGLEWIGQIYPGSDTFHYNKNFKGKATLTADKSSNTAYMQLNSLTSEDSAVYFCARFFEGFAYWGQGTLVTVSA VL: DIKMTQSPSSMYAFLGERVTITCKASQGINNYLSWFHLKPGKSPKSLIYRANRLVDGVPSRFSGSGSGQDYSLTISSLDYEDVGIYYCLQYDEFPLTFGGGTKLELK | 34 | 44 | 0.1
3 | TROP2-Ab51 (antibody, V domains shown, Monoclonal antibody from a hybridoma clone) VH: QVQLQQSGPEVVKPGASVKMSCRASGYRFTDYVINWVKQRTGQGLEWIGQIYPGSDSFHYNKNFKGKATLTADKSSNTAYMQLNSLTSEDSAVYFCARFFEGFAYWGQGTLVTVSA VL: DIKMTQSPSSMYAFLGERVTITCKASQGINNYLSWFQLKPGKSPKSLIYRANRLVDGVPSRFSGSGSGQDYSLTISSLDYEDMGIYYCLQYDEFPLTFGGGTKLELK | 39 | 56.7 | < 0.1
4 | TROP2-Ab22 (antibody, V domains shown, Monoclonal antibody from a hybridoma clone) VH: QVQLQQSGPELVKPGASVKMSCKASGYTFTDYVINWVKQRPGQGLEWVGQIYPGSDGTYYNEPFKGEATLTADKSSNTAYMQLSSLTSEDSAVYFCARFFEGFAYWGQGTLVTVSA VL: DIKMTQSPSSMFASLGERVTITCKASQDINWYLSWFQQKPGKSPKTLIYRANRLVDGVPSRFSGSGSGQDYSLTISSLDYEDMGVYYCLQYEEFPLTFGAGTKLELK | 34 | 58.7 | 0.19
5 | TROP2-Ab46 (antibody, V domains shown, Monoclonal antibody from a hybridoma clone) VH: QVQLQQPGAELVRPGASVRLSCKSSGYTFTSYWINWVKQRPGQGLEWIGNIFPSHSYTNYNQKFRDKATLTVDKSSSTAYLQLSSPTSDDSAVYYCTRGSGFDYWGQGTALTVSS VL: DILLTQSPAILSVSPGERVSFSCRASQNIGTSIHWYQQRTNGSPRLLISYASESISGIPSRFSGSGSGTDFTLIINSVESEDIADYYCQHSYSWPFTFGSGTKLEVK | 27 | 67.2 | < 0.1
6 | TROP2-Ab50 (antibody, V domains shown, Monoclonal antibody from a hybridoma clone; also called TROP2 -Ab0) VH: QVQLQQSGAELVRPGTSVKISCKASGYTFTNYWLDWIKQRPGQGLEWIGNIFPGGDYTNYNEEFRGKATLTADTSSRTAFMQLSSLTSEDSAVYFCARSSYDYWGQGTLVTVSA VL: DILLTQSPAILSVSPGERVSFSCRASQNIGTSIHWYQQRTNGSPRLLIKYSSESISGIPSRFSGSGSGTDFSLTINSVESEDIGDYYCQHSYTWPFTFGSGTKLEIK | 45 | 99.2 | < 0.1
